Test results reported in the Human Domainome abundance scans (Beltran et al. 2025).
± gives the uncertainty stated by the source.

B1: KAT8 regulatory NSL complex subunit 2, residues 28 to 91; numbered along this chain, Q9H9L4 (parent)
chain: CAFTHRPCSHPRLEGQEFCIKHILEDKNAPFKQCSYISTKNGKRCPNAAPKPEKKDGVSFCAEH

Variants of: B1
Assay: abundance fitness (aPCA) (normalised: wild type 0, dead -1); higher = more abundant; growth selection in yeast, the domain comes from the species named
Settings: Homo sapiens

Row | Variant | abundance fitness
1 | R6Y | -0.06 ± 0.09
2 | R6I | -0.034 ± 0.079
3 | R6T | -0.088 ± 0.066
4 | H10Q | -0.078 ± 0.086
5 | H10W | -0.127 ± 0.068
6 | H10C | -0.015 ± 0.097
7 | H10T | -0.11 ± 0.056
8 | H10P | -1.12 ± 0.12
9 | H10V | -0.149 ± 0.06
10 | H10A | -0.126 ± 0.066
11 | H10M | -0.047 ± 0.061
12 | H10S | -0.042 ± 0.061
13 | H10L | -0.103 ± 0.047
14 | H10G | -0.01 ± 0.066
15 | H10Y | -0.041 ± 0.079
16 | H10D | -0.28 ± 0.18
17 | H10E | -0.038 ± 0.077
18 | H10K | -0.113 ± 0.08
19 | H10F | -0.076 ± 0.1
20 | H10I | -0.013 ± 0.13
21 | H10R | -0.064 ± 0.045
22 | P11R | -0.092 ± 0.051
23 | P11A | -0.032 ± 0.066
24 | P11N | -0.282 ± 0.1

Row | Variant | abundance fitness
25 | P11S | -0.162 ± 0.067
26 | P11W | -0.555 ± 0.079
27 | P11K | -0.067 ± 0.085
28 | P11H | -0.234 ± 0.092
29 | P11I | -0.298 ± 0.14
30 | P11L | -0.18 ± 0.055
31 | P11C | -0.296 ± 0.098
32 | P11D | -0.068 ± 0.12
33 | P11E | -0.004 ± 0.059
34 | P11M | -0.092 ± 0.058
35 | P11V | -0.197 ± 0.053
36 | P11G | -0.133 ± 0.062
37 | C8R | -1.02 ± 0.06
38 | C8F | -1.45 ± 0.15
39 | C8L | -1.31 ± 0.07
40 | C8V | -0.949 ± 0.058
41 | C8S | -0.891 ± 0.059
42 | C8K | -0.664 ± 0.079
43 | C8Y | -1.07 ± 0.073
44 | C8H | -0.854 ± 0.085
45 | C8P | -0.874 ± 0.086
46 | C8W | -1.24 ± 0.093
47 | C8A | -0.883 ± 0.076
48 | C8M | -0.937 ± 0.084

Row | Variant | abundance fitness
49 | C8D | -0.646 ± 0.085
50 | C8I | -0.847 ± 0.09
51 | C8G | -0.742 ± 0.056
52 | C8N | -0.641 ± 0.1
53 | C8Q | -0.832 ± 0.093
54 | C8E | -0.711 ± 0.054
55 | F3K | -0.287 ± 0.15
56 | F3T | -0.083 ± 0.068
57 | F3Y | -0.151 ± 0.057
58 | F3G | -0.154 ± 0.064
59 | F3L | -0.332 ± 0.049
60 | F3W | -0.161 ± 0.061
61 | F3H | -0.026 ± 0.086
62 | F3M | -0.172 ± 0.085
63 | F3P | -0.639 ± 0.074
64 | F3D | -0.255 ± 0.075
65 | F3C | -0.14 ± 0.077
66 | F3Q | -0.28 ± 0.055
67 | F3I | 0.033 ± 0.13
68 | F3R | -0.174 ± 0.044
69 | F3E | -0.285 ± 0.085
70 | F3N | -0.312 ± 0.1
71 | F3A | -0.318 ± 0.087
72 | G15F | -0.406 ± 0.1

Row | Variant | abundance fitness
73 | G15E | -0.219 ± 0.073
74 | G15C | -0.403 ± 0.14
75 | G15D | -0.127 ± 0.14
76 | G15T | -0.428 ± 0.089
77 | G15A | -0.284 ± 0.064
78 | G15M | -0.199 ± 0.07
79 | G15P | -0.543 ± 0.04
80 | G15R | -0.228 ± 0.056
81 | G15N | -0.134 ± 0.12
82 | G15Y | -0.706 ± 0.3
83 | G15V | -0.972 ± 0.076
84 | G15W | -0.592 ± 0.091
85 | G15Q | -0.134 ± 0.11
86 | G15H | -0.263 ± 0.11
87 | Q16Y | -0.187 ± 0.17
88 | Q16S | -0.091 ± 0.054
89 | Q16I | -0.497 ± 0.09
90 | Q16D | -0.408 ± 0.2
91 | Q16M | -0.146 ± 0.11
92 | Q16P | -1.11 ± 0.11
93 | Q16W | -0.226 ± 0.058
94 | Q16R | -0.089 ± 0.044
95 | Q16T | -0.15 ± 0.074
96 | Q16E | -0.261 ± 0.078

Row | Variant | abundance fitness
97 | Q16V | -0.38 ± 0.068
98 | Q16K | -0.143 ± 0.1
99 | Q16L | -0.054 ± 0.053
100 | Q16C | -0.198 ± 0.065
101 | Q16N | -0.25 ± 0.086
102 | S9N | -0.313 ± 0.1
103 | S9D | -0.121 ± 0.073
104 | S9M | -0.135 ± 0.06
105 | S9T | -0.193 ± 0.062
106 | S9C | -0.123 ± 0.08
107 | S9G | -0.13 ± 0.051
108 | S9P | -0.174 ± 0.066
109 | S9V | -0.065 ± 0.075
110 | S9L | -0.113 ± 0.047
111 | S9H | -0.119 ± 0.085
112 | S9F | 0.008 ± 0.08
113 | S9K | -0.343 ± 0.068
114 | S9I | 0.016 ± 0.12
115 | S9Q | -0.115 ± 0.062
116 | S9R | -0.186 ± 0.047
117 | S9E | -0.191 ± 0.083
118 | C19R | -1.17 ± 0.063
119 | C19F | -1.16 ± 0.37
120 | C19G | -0.941 ± 0.056

Row | Variant | abundance fitness
121 | C19M | -1.08 ± 0.091
122 | C19P | -0.809 ± 0.11
123 | C19Y | -1.38 ± 0.21
124 | C19T | -0.908 ± 0.07
125 | C19H | -1.63 ± 0.37
126 | C19K | -0.572 ± 0.091
127 | C19E | -1 ± 0.08
128 | C19I | -1.19 ± 0.069
129 | C19A | -0.973 ± 0.061
130 | C19W | -1.28 ± 0.091
131 | C19D | -0.994 ± 0.13
132 | C19N | -1.27 ± 0.12
133 | C19S | -0.851 ± 0.067
134 | C19Q | -0.878 ± 0.08
135 | I20A | -0.048 ± 0.063
136 | I20R | -0.117 ± 0.045
137 | I20G | -0.104 ± 0.048
138 | I20E | -0.129 ± 0.07
139 | I20H | -0.179 ± 0.15
140 | I20L | -0.057 ± 0.042
141 | I20P | -0.184 ± 0.072
142 | I20K | -0.195 ± 0.084
143 | I20F | -0.115 ± 0.074
144 | I20D | -0.208 ± 0.13

Row | Variant | abundance fitness
145 | I20S | -0.136 ± 0.068
146 | I20M | -0.031 ± 0.066
147 | I20C | -0.14 ± 0.064
148 | I20Q | -0.091 ± 0.08
149 | I20N | -0.328 ± 0.21
150 | P7S | -0.14 ± 0.053
151 | P7K | -0.123 ± 0.073
152 | P7G | -0.063 ± 0.091
153 | P7Q | -0.072 ± 0.062
154 | P7C | -0.201 ± 0.091
155 | P7N | -0.204 ± 0.21
156 | P7V | -0.1 ± 0.052
157 | P7W | -0.148 ± 0.06
158 | P7F | -0.121 ± 0.12
159 | P7D | 0.003 ± 0.1
160 | P7M | -0.05 ± 0.067
161 | P7H | -0.133 ± 0.14
162 | P7R | -0.003 ± 0.058
163 | P7E | -0.063 ± 0.078
164 | P7A | -0.061 ± 0.076
165 | P7L | -0.101 ± 0.046
166 | P7Y | -0.149 ± 0.1
167 | P7I | -0.096 ± 0.081
